# Experimental data published in patent US9114104B2, “Proteinase K inhibitors, methods and compositions therefor” (Life Technologies Corporation, priority 2008, dated 2015).
# The star is where a group is joined. MeOSuc = COC(=O)CCC(=O)*; CH2Cl = ClC*
# Legend:
# proteinase K [1] = biological target: T1, proteinase K (Parengyodontium album, UniProt P06873); test: Detection of β-actin RNA in HeLa cell lysates after stop solution (in vitro validation); assay type: biochemical; conditions: FIG. 6; ~10,000 HeLa cells lysed, β-actin RT-PCR
# Experimental: HeLa cells (˜10,000 cells) were lysed in 50 μl lysis solution for 5 minutes at room temperature. Stop solution (5 μl) was then added; the lysate-stop solution was mixed, and incubated for 2 minutes at room temperature. A volume of 10 μl of stopped lysate was added to a 50 μl RT reaction followed by addition of 4 μl of RT reaction into a 20 μl PCR reaction using the β-actin primers/probe of the TaqMan® Gene Expression Cells-to-CT™ Kit (Applied Biosystems).
# proteinase K [2] = biological target: T1, proteinase K; conditions: 100 μg/ml proteinase K; cited from earlier work
# proteinase K [3] = biological target: T1, proteinase K; test: Indirect linked assay: proteinase K inhibition read out by reverse transcriptase real time PCR of Xeno RNA template (Cells-to-CT kit); assay type: biochemical
# Source text: The present example provides for inhibition of proteinase K in the context of preparing samples for nucleic acid detection. Said preparation of samples is described by pending U.S. patent application Ser. No. 12/122,274 filed May 16, 2008 entitled “Sample Preparation for In Situ Nucleic Acid Analysis, Methods and Compositions Therefor,” hereby incorporated by reference in its entirety. Embodiments of said patent application provide a process for preparing a sample containing RNA for in situ analysis of RNA or a surrogate thereof. In some embodiments, the process comprises contacting the sample containing RNA with a lysis mixture comprising a polypeptide having protease activity under conditions and for a time to produce a lysate, and admixing at least a portion of the lysate with a stop mixture that comprises an inhibitor of the polypeptide having protease activity at substantially the same temperature as the contacting step to form a stopped mixture. The resultant stopped mixture is preferably compatible with in situ reverse transcriptase and DNA polymerase reactions.
# Methoxysuccinyl tetrapeptide chloromethylketone compounds synthesized as set forth in Example 1 herein were analyzed for inhibitory activity of proteinase K in such stopped mixtures as described below. Functional validation for the nucleic acid detection system using inhibitors of embodiments herein was carried out by measuring mRNA levels in biological samples using the TaqMan® Gene Expression Cells-to-CT™ Kit and the TaqMan® Cells-to-CT™ Control Kit (Applied Biosystems, Foster City, Calif.). MicroAmp® optical 96-well reaction plates were purchased from Applied Biosystems. Disposable reagent reservoirs were purchased from VistaLab Technologies, Inc (Mt. Kisco, N.Y.). Reverse transcription (RT) reactions were performed at 37° C. for 60 min, 95° C. for 5 min, and cooled to 4° C. by using GeneAmp® PCR systems 9700 (Applied Biosystems). Real time PCR was performed by using 7500 Fast Real-Time PCR System. (Applied Biosystems).
# The present indirect linked assay measures the amount of inhibition of proteinase K activity by assaying reverse transcriptase real time PCR amplification of a template, which amplification is dependent upon reverse transcriptase activity.
# Stop solutions (100 μl) contained the following reagents (10× concentration):
# Test inhibitor, 11 mM (final concentration when diluted into stopped mixture is 1 mM). Test inhibitor was also used at concentrations such that, when diluted with a lysis mixture to form a stopped mixture as described below, the final concentration of inhibitor in the stopped mixture was 0.75 mM, 0.5 mM, 0.25 mM, 0.10 mM, 0.05 mM and 0 mM (control).
# Proteinase K lysis solution (50 μL (no added DNase)) from the TaqMan® gene expression Cells-to-CT™ kit (Applied Biosystems) was aliquoted into 18 tubes. To the test samples (these are a working equivalent to lysis mixtures in the Cells-to-CT™ workflow), stop solution (5 μL) was added; the tubes were mixed and held for 2 min at room temperature. For the control reactions, 50 μl of proteinase K buffer was mixed with 5 μl of stop mix without inhibitor and the resulting reaction mixture was heated at 95° C. for 10 min to thermally inactivate the proteinase K reaction. Next, reverse transcription reagents were prepared, i.e. 15 μL 2×RT buffer, and 1.5 μL of 20×RT enzyme mix, were aliquoted and mixed in the wells of a 96 well plate. To this RT solution, 13.5 μL of each proteinase K containing stopped mixture was added and the solution was mixed well. The resulting mixtures were incubated at room temperature for 1 hr for residual proteinase K activity to degrade the RT enzyme. After 1 hr incubation at room temperature, 1 μL of Xeno™ RNA Control template (Applied Biosystems P/N 4386995 diluted to 25,000 copies/μL in 10 ng/μL poly A) was added to all wells except for the no template control wells. […]
# T1 sequence (P06873 106-384): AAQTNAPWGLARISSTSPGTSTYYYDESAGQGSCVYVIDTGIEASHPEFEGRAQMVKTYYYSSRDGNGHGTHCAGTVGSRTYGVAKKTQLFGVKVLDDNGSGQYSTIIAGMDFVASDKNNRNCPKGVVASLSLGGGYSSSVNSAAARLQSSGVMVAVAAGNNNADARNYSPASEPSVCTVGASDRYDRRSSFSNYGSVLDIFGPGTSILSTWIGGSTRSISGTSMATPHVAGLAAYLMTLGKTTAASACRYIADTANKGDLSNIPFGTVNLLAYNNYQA
substance,measurement,setting,value
methoxysuccinyl-AlaAlaProVal-chloromethyl ketone (MeOSuc-AAPV-CH2Cl) [reference compound],concentration providing effective inhibition of proteinase K,proteinase K [1],0.5 mM
same,lowest concentration with inhibitory activity for proteinase K,proteinase K [2],0.25 mM
same,lowest concentration in the stopped mixture with inhibitory activity for proteinase K,"proteinase K [3]; Example 2, FIG. 1, tested 1 mM to 0.05 mM in stopped mixture",about 0.25 mM
same,lowest concentration in the stopped mixture inhibitory for proteinase K activity,"proteinase K [3]; Example 6, FIG. 5, tested 1 mM to 0.05 mM",about 0.25 mM
same,concentration at which inhibitor begins to lose efficacy,proteinase K [3]; FIG. 1,greater than 0.25 mM
same,average Ct (cycle threshold),"proteinase K [3]; FIG. 1, 0.1 mM inhibitor",40
same,average Ct (cycle threshold),"proteinase K [3]; FIG. 1, 0.25 mM inhibitor",about 33
same,average Ct (cycle threshold),"proteinase K [3]; FIG. 1, 0.5 mM inhibitor, Ct ~40 = active proteinase K, ~30 = inhibited",about 30
same,average Ct (cycle threshold),"proteinase K [3]; FIG. 5, 0.1 mM inhibitor",about 40
same,average Ct (cycle threshold),"proteinase K [3]; FIG. 5, 0.25 mM inhibitor",about 29
